# Assay results from patent US20150337019A1 (MANUKAMED HOLDINGS LIMITED PARTNERSHIP, published 2015).
# Target: T1, Cathepsin B from bovine spleen (bovine, UniProt P07688 80-332)
# Experiment: cell-based or functional assay
row,Binder,"Cathepsin B inhibition test, 2 mM peptide"
1,Ac-PFKI-OH [Ac-PFKI-OH],152
2,"Ac-KISI-OH (also: MGO-modified, site not given here) [MGO-modified Ac-KISI-OH]",92.8
3,Ac-KISI-OH [Ac-KISI-OH],133
4,Ac-PFKISIHL-OH [Ac-PFKISIHL-OH],144
5,Ac-KISIHL-OH [Ac-KISIHL-OH],149
6,"Ac-KISIHL-OH (also: MGO-modified, site not given here) [MGO-modified Ac-KISIHL-OH]",73.2

# Results, then the binder that gave them:
row,"Cathepsin B inhibition test, 2 mM peptide",Binder
1,28.1,"Ac-PFKISIHL-OH (also: MGO-modified, site not given here) [MGO-modified Ac-PFKISIHL-OH]"
2,91.5,"Ac-PFKI-OH (also: MGO-modified, site not given here) [MGO-modified Ac-PFKI-OH]"

# Target: T1, Cathepsin B from bovine spleen
# Experiment: cell-based or functional assay
# Remark: another data set of the same source
row,Binder,"Cathepsin B inhibition test, 2 mM peptide"
1,Ac-SSKSNNRHNNND-OH [Ac-SSKSNNRHNNND-OH],164
2,Ac-SSKSNNRH-OH [Ac-SSKSNNRH-OH],125
3,Ac-SSKSNNRHNN-OH [Ac-SSKSNNRHNN-OH],131
4,Ac-SSKSNN-OH [Ac-SSKSNN-OH],129

# Second part, the binder after the results:
row,"Cathepsin B inhibition test, 2 mM peptide",Binder
1,107,"Ac-SSKSNN-OH (also: MGO-modified, site not given here) [MGO-modified Ac-SSKSNN-OH]"
2,102,"Ac-SSKSNNRH-OH (also: MGO-modified, site not given here) [MGO-modified Ac-SSKSNNRH-OH]"
3,110,"Ac-SSKSNNRHNNND-OH (also: MGO-modified, site not given here) [MGO-modified Ac-SSKSNNRHNNND-OH]"
4,104,"Ac-SSKSNNRHNN-OH (also: MGO-modified, site not given here) [MGO-modified Ac-SSKSNNRHNN-OH]"

# Target: T1, Cathepsin B from bovine spleen
# Experiment: cell-based or functional assay
# Remark: another data set of the same source
row,Binder,"Cathepsin B inhibition test, 2 mM peptide"
1,"Ac-NQKNNNQNDN-OH (also: MGO-modified, site not given here) [MGO-modified Ac-NQKNNNQNDN-OH]",123
2,Ac-Lys-Asn-OH [Ac-KN-OH],150
3,Ac-NQKNNNQNDN-OH [Ac-NQKNNNQNDN-OH],254

# Target: T1, Cathepsin B from bovine spleen
# Experiment: cell-based or functional assay
# Remark: another data set of the same source
row,Binder,"Cathepsin B inhibition test, 2 mM peptide"
1,Ac-KHNN-OH [Ac-KHNN-OH],129
2,Ac-QNKHNN-OH [Ac-QNKHNN-OH],168
3,Ac-Lys-His-OH [Ac-KH-OH],230

# Now from value to binder:
row,"Cathepsin B inhibition test, 2 mM peptide",Binder
1,51.3,"Ac-QNKHNN-OH (also: MGO-modified, site not given here) [MGO-modified Ac-QNKHNN-OH]"
2,97.8,"Ac-QNKH-OH (also: MGO-modified, site not given here) [MGO-modified Ac-QNKH-OH]"

# Target: T1, Cathepsin B from bovine spleen
# Experiment: cell-based or functional assay
# Remark: another data set of the same source
row,Binder,"Cathepsin B inhibition test, 2 mM peptide"
1,Ac-HSSKLH-OH [Ac-HSSKLH-OH],122
2,Ac-SSKS-OH [Ac-SSKS-OH],119
3,Ac-SKLH-OH [Ac-SKLH-OH],146
4,"Ac-HSSKLH-OH (also: MGO-modified, site not given here) [MGO-modified Ac-HSSKLH-OH]",102
5,Ac-HSSK-OH [Ac-HSSK-OH],165

# Second part, the binder after the results:
row,"Cathepsin B inhibition test, 2 mM peptide",Binder
1,107,"Ac-SSKS-OH (also: MGO-modified, site not given here) [MGO-modified Ac-SSKS-OH]"
2,67.6,"Ac-SKLH-OH (also: MGO-modified, site not given here) [MGO-modified Ac-SKLH-OH]"
